Reference: patent US20240270821A1, “GIP/GLP1/GCG TRI-RECEPTOR AGONISTS AND USES THEREOF” (priority 2023, published 2024)

How the values were obtained:
Experiment in all cases: cell-based or functional assay
[1] = target: hGLP-1R (Homo sapiens, UniProt P43220)
[2] = target: T1, human GIP receptor (human) (UniProt P48546)
T1 sequence (looked up): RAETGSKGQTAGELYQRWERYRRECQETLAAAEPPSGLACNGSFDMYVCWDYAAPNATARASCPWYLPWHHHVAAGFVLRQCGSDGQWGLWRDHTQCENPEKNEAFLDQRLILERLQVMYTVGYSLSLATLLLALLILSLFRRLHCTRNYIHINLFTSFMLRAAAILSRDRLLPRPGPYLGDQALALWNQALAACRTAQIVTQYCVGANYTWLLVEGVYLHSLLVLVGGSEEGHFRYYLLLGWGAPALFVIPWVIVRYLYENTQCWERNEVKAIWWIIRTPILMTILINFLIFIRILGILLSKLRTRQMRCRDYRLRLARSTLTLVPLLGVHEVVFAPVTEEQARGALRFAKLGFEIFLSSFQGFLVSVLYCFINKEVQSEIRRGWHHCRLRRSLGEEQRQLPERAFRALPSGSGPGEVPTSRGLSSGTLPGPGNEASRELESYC

[3] = target: human glucagon receptor (human) (UniProt P47871)
human glucagon receptor (human), sequence (P47871 26-477): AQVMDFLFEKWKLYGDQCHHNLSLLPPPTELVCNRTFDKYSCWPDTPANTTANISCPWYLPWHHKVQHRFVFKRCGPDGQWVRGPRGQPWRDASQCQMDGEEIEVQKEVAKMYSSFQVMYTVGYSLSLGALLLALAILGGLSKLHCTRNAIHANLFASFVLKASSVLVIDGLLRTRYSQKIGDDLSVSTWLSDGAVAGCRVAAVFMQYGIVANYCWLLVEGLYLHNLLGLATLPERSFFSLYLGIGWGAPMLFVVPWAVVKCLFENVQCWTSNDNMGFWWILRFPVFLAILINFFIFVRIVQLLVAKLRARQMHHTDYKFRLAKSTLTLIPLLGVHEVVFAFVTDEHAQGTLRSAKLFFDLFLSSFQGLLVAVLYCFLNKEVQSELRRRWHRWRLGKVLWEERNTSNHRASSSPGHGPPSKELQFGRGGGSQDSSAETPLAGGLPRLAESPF

hGLP-1R, sequence (P43220 24-463): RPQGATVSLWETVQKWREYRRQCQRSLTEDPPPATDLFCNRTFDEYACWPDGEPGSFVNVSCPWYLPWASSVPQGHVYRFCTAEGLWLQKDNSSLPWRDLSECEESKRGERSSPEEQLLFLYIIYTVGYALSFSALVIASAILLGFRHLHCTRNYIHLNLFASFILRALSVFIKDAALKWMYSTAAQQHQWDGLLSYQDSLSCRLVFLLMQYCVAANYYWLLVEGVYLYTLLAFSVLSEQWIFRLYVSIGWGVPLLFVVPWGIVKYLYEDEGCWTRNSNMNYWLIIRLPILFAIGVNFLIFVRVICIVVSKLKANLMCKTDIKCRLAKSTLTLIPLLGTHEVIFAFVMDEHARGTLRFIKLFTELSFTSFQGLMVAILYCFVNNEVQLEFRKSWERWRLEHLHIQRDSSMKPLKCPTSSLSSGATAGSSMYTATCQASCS

B1: Example 925 (peptide)
chain: YXQGTFTSDXSQXLDKKAQXAFIEYLIEXGPSSGAPPPSGSE
modifications: acylated lysine γGlu-C18 diacid; non-natural residues; C-terminal amide; synthetic construct; SITE 2: note = 2-Aminoisobutyric Acid; SITE 10: note = 3-(4-Pyridyl)-L-alanine; SITE 13: note = alpha-methyl-leucine; SITE 17: note = Lysine is chemically modified through conjugation of the epsilon-amino group of the Lysine side chain with (D-Glutamic acid)2-(gamma-Glu)-CO-(CH2)
cAMP Rel EC50 (1% HSA) [1]: 708 nM | cAMP Rel EC50 (1% HSA) [2]: 23 nM | cAMP Rel EC50 (1% HSA) [3]: 2500 nM

B2: Example 926 (peptide)
chain: YXQGTFTSDXSQXLDKKAQXAFIEYLIEXGPSSGAPPPSGSE
modifications: γGlu-C18 diacid on Lys; non-natural residues; amide; synthetic construct; SITE 2: note = 2-Aminoisobutyric Acid; SITE 10: note = 3-(4-Pyridyl)-L-alanine; SITE 13: note = alpha-methyl-leucine; SITE 17: note = Lysine is chemically modified through conjugation of the epsilon-amino group of the Lysine side chain with (gamma-Glu)-(D-Glutamic acid)2-CO-(CH2)
cAMP Rel EC50 (1% HSA) [1]: 600 nM | cAMP Rel EC50 (1% HSA) [2]: 13.5 nM | cAMP Rel EC50 (1% HSA) [3]: 1380 nM

B3: Example 927 (peptide)
chain: YXQGTFTSDXSQXLDKKAQXAFIEYLIEXGPSSGAPPPSGSE
modifications: Aib, 4Pal, Me4Pal, alpha-methyl-Leu, lipidated Lys, amide; synthetic construct; SITE 2: note = 2-Aminoisobutyric Acid; SITE 10: note = 3-(4-Pyridyl)-L-alanine; SITE 13: note = alpha-methyl-leucine; SITE 17: note = Lysine is chemically modified through conjugation of the epsilon-amino group of the Lysine side chain with D-Glutamic acid-(gamma-Glu)-D-Glutamic
cAMP Rel EC50 (1% HSA) [1]: 584 nM | cAMP Rel EC50 (1% HSA) [2]: 22.2 nM | cAMP Rel EC50 (1% HSA) [3]: 1210 nM

B4: Example 928 (peptide)
chain: YXQGTFTSDXSQXLDKKAQXAFIEYLIEXGPSSGAPPPSGSEE
modifications: acylated lysine γGlu-C18 diacid; non-natural residues; C-terminal amide; synthetic construct; SITE 2: note = 2-Aminoisobutyric Acid; SITE 10: note = 3-(4-Pyridyl)-L-alanine; SITE 13: note = alpha-methyl-leucine; SITE 17: note = Lysine is chemically modified through conjugation of the epsilon-amino group of the Lysine side chain with D-Glutamic acid-(gamma-Glu)-CO-(CH2)16
cAMP Rel EC50 (1% HSA) [1]: 604 nM | cAMP Rel EC50 (1% HSA) [2]: 15.1 nM | cAMP Rel EC50 (1% HSA) [3]: 1090 nM

B5: Example 929 (peptide)
chain: YXQGTFTSDXSQXLDKKAQXAFIEYLIEXGPSSGAPPPSGSEE
modifications: non-natural residues, γGlu-C18 diacid acyl on K, C-terminal amide; synthetic construct; SITE 2: note = 2-Aminoisobutyric Acid; SITE 10: note = 3-(4-Pyridyl)-L-alanine; SITE 13: note = alpha-methyl-leucine; SITE 17: note = Lysine is chemically modified through conjugation of the epsilon-amino group of the Lysine side chain with (D-Glutamic acid)2-(gamma-Glu)-CO-(CH2)
cAMP Rel EC50 (1% HSA) [1]: 593 nM | cAMP Rel EC50 (1% HSA) [2]: 22.6 nM | cAMP Rel EC50 (1% HSA) [3]: 2690 nM

B6: Example 930 (peptide)
chain: YXQGTFTSDXSQXLDKKAQXAFIEYLIEXGPSSGAPPPSGSEE
modifications: acylated Lys γGlu-(e)2-C18 diacid; non-natural residues; C-terminal amide; synthetic construct; SITE 2: note = 2-Aminoisobutyric Acid; SITE 10: note = 3-(4-Pyridyl)-L-alanine; SITE 13: note = alpha-methyl-leucine; SITE 17: note = Lysine is chemically modified through conjugation of the epsilon-amino group of the Lysine side chain with (gamma-Glu)-(D-Glutamic acid)2-CO-(CH2)
cAMP Rel EC50 (1% HSA) [1]: 824 nM | cAMP Rel EC50 (1% HSA) [2]: 19.9 nM | cAMP Rel EC50 (1% HSA) [3]: 1700 nM

B7: Example 931 (peptide)
chain: YXQGTFTSDXSQXLDKKAQXAFIEYLIEXGPSSGAPPPSGSEE
modifications: acylated Lys e-γGlu-e-C18 diacid; non-natural residues; C-terminal amide; synthetic construct; SITE 2: note = 2-Aminoisobutyric Acid; SITE 10: note = 3-(4-Pyridyl)-L-alanine; SITE 13: note = alpha-methyl-leucine; SITE 17: note = Lysine is chemically modified through conjugation of the epsilon-amino group of the Lysine side chain with D-Glutamic acid-(gamma-Glu)-D-Glutamic
cAMP Rel EC50 (1% HSA) [1]: 878 nM | cAMP Rel EC50 (1% HSA) [2]: 20.8 nM | cAMP Rel EC50 (1% HSA) [3]: 2300 nM

B8: Example 932 (peptide)
chain: YXQGTFTSDXSQXLDXKAQXAFIEXLLEGGPSSGAPPPSGS
modifications: non-natural residues; Lys acylated C18 diacid; C-terminal amide; synthetic construct; SITE 2: note = 2-Aminoisobutyric Acid; SITE 10: note = 3-(4-Pyridyl)-L-alanine; SITE 13: note = alpha-methyl-leucine; SITE 16: note = L-ornithine; SITE 17: note = Lysine is chemically modified through conjugation of the epsilon-amino group of the Lysine side chain with (2-[2-(2-
cAMP Rel EC50 (1% HSA) [1]: 249 nM | cAMP Rel EC50 (1% HSA) [2]: 25 nM | cAMP Rel EC50 (1% HSA) [3]: 513 nM

B9: Example 933 (peptide)
chain: YXQGTFTSDXSXXLDXKAQXAFIEXLLEGGPSSGAPPPSGS
modifications: synthetic construct; SITE 2: note = 2-Aminoisobutyric Acid; SITE 10: note = 3-(4-Pyridyl)-L-alanine; SITE 12: note = L-ornithine; SITE 13: note = alpha-methyl-leucine; SITE 16: note = L-ornithine; SITE 17: note = Lysine is chemically modified through conjugation of the epsilon-amino group of the Lys
Relative cAMP EC50 [1]: 2.32 nM | cAMP Rel EC50 (1% HSA) [1]: 557 nM | Relative cAMP EC50 [2]: 0.259 nM | cAMP Rel EC50 (1% HSA) [2]: 35.1 nM | Relative cAMP EC50 [3]: 5.51 nM | cAMP Rel EC50 (1% HSA) [3]: 1530 nM

B10: Example 934 (peptide)
chain: YXQGTFTSDXSQXLDKKAQXQFIEXLIEGGPSSGAPPPSGS
modifications: non-natural residues, acylated Lys ((γGlu)2-C18 diacid), C-terminal amide; synthetic construct; SITE 2: note = 2-Aminoisobutyric Acid; SITE 10: note = 3-(4-Pyridyl)-L-alanine; SITE 13: note = alpha-methyl-leucine; SITE 17: note = Lysine is chemically modified through conjugation of the epsilon-amino group of the Lysine side chain with (gamma-Glu)2-CO-(CH2)16-CO2H; SITE 20:
cAMP Rel EC50 (1% HSA) [1]: 175 nM | cAMP Rel EC50 (1% HSA) [2]: 28.1 nM | cAMP Rel EC50 (1% HSA) [3]: 1380 nM

B11: Example 948 (peptide)
chain: YXQGTFTSDXSQXLDKKAQXAFIEXLIEGGPSSGAPPPSGS
modifications: Aib, 4Pal, Me4Pal, alpha-methyl-Leu, lipidated Lys, amide; synthetic construct; SITE 2: note = 2-Aminoisobutyric Acid; SITE 10: note = 3-(4-Pyridyl)-L-alanine; SITE 13: note = alpha-methyl-leucine; SITE 17: note = Lysine is chemically modified through conjugation of the epsilon-amino group of the Lysine side chain with (2-[2-(2-Amino-ethoxy)-ethoxy]-acetyl)
cAMP Rel EC50 (1% HSA) [1]: 304 nM | cAMP Rel EC50 (1% HSA) [2]: 22.9 nM | cAMP Rel EC50 (1% HSA) [3]: 537 nM

B12: Example 949 (peptide)
chain: YXQGTFTSDXSXXLDKKAQXAFIEXLIEGGPSSGAPPPSGS
modifications: Aib, 4Pal, Orn, Me4Pal; acylated lysine; amide; synthetic construct; SITE 2: note = 2-Aminoisobutyric Acid; SITE 10: note = 3-(4-Pyridyl)-L-alanine; SITE 12: note = L-ornithine; SITE 13: note = alpha-methyl-leucine; SITE 17: note = Lysine is chemically modified through conjugation of the epsilon-amino group of the Lysine side chain with (2-[2-(2-
cAMP Rel EC50, nM (1% HSA) [1]: 721 nM | cAMP Rel EC50, nM (1% HSA) [2]: 26 nM | cAMP Rel EC50, nM (1% HSA) [3]: 317 nM

B13: Example 950 (peptide)
chain: YXQGTFTSDXSRXLDKKAQXAFIEXLIEGGPSSGAPPPSGS
modifications: non-natural residues, AEEA-γGlu-C18 diacid lysine acylation, C-terminal amide; synthetic construct; SITE 2: note = 2-Aminoisobutyric Acid; SITE 10: note = 3-(4-Pyridyl)-L-alanine; SITE 13: note = alpha-methyl-leucine; SITE 17: note = Lysine is chemically modified through conjugation of the epsilon-amino group of the Lysine side chain with (2-[2-(2-Amino-ethoxy)-ethoxy]-acetyl)
cAMP Rel EC50, nM (1% HSA) [1]: 328 nM | cAMP Rel EC50, nM (1% HSA) [2]: 18.1 nM | cAMP Rel EC50, nM (1% HSA) [3]: 327 nM

B14: Example 951 (peptide)
chain: YXQGTFTSDXSQXLDKKAQXAFIEXLIEGGPSSGAPPPSGS
modifications: Aib, 4Pal, Me4Pal, αMeL; lipidated Lys; C-terminal amide; synthetic construct; SITE 2: note = 2-Aminoisobutyric Acid; SITE 10: note = 3-(4-Pyridyl)-L-alanine; SITE 13: note = alpha-methyl-leucine; SITE 17: note = Lysine is chemically modified through conjugation of the epsilon-amino group of the Lysine side chain with (gamma-Glu)2-CO-(CH2)16-CO2H; SITE 20:
cAMP Rel EC50, nM (1% HSA) [1]: 382 nM | cAMP Rel EC50, nM (1% HSA) [2]: 18.2 nM | cAMP Rel EC50, nM (1% HSA) [3]: 657 nM

B15: Example 91 (peptide)
chain: YXQGTFTSDFSXXLDKKAQXAFIEYLLAGGPSSGAPPPSGEX
modifications: synthetic construct; SITE 2: note = 2-Aminoisobutyric Acid; SITE 12: note = L-ornithine; SITE 13: note = alpha-methyl-leucine; SITE 17: note = Lysine is chemically modified through conjugation of the epsilon-amino group of the Lysine side chain with (2-[2-(2-Amino-ethoxy)-ethoxy]-acetyl)-(gamma-Glu)
Relative cAMP EC50 [1]: 3.39 nM | cAMP Rel EC50, nM (in the presence of 1% HSA) [1]: 356 nM | Relative cAMP EC50 [2]: 0.243 nM | cAMP Rel EC50, nM (in the presence of 1% HSA) [2]: 23.9 nM | Relative cAMP EC50 [3]: 9.13 nM | cAMP Rel EC50, nM (in the presence of 1% HSA) [3]: 1200 nM

B16: Example 952 (peptide)
chain: YXQGTFTSDXSXXLDKKAQXAFIEXLIEGGPSSGAPPPSGS
modifications: acylated Lys, C-terminal amide, non-natural residues; synthetic construct; SITE 2: note = 2-Aminoisobutyric Acid; SITE 10: note = 3-(4-Pyridyl)-L-alanine; SITE 12: note = L-ornithine; SITE 13: note = alpha-methyl-leucine; SITE 17: note = Lysine is chemically modified through conjugation of the epsilon-amino group of the Lysine side chain with (gamma-Gl)
cAMP Rel EC50, nM (1% HSA) [1]: 439 nM | cAMP Rel EC50, nM (1% HSA) [2]: 16.6 nM | cAMP Rel EC50, nM (1% HSA) [3]: 266 nM

B17: Example 953 (peptide)
chain: YXQGTFTSDXSRXLDKKAQXAFIEXLIEGGPSSGAPPPSGS
modifications: Aib, 4Pal, αMeL, Me4Pal; lipidated Lys; C-terminal amide; synthetic construct; SITE 2: note = 2-Aminoisobutyric Acid; SITE 10: note = 3-(4-Pyridyl)-L-alanine; SITE 13: note = alpha-methyl-leucine; SITE 17: note = Lysine is chemically modified through conjugation of the epsilon-amino group of the Lysine side chain with (gamma-Glu)2-CO-(CH2)16-CO2H; SITE 20:
cAMP Rel EC50, nM (1% HSA) [1]: 347 nM | cAMP Rel EC50, nM (1% HSA) [2]: 10.9 nM | cAMP Rel EC50, nM (1% HSA) [3]: 275 nM

B18: Example 954 (peptide)
chain: YXQGTFTSDXSQXLDKKAQXAFIEXLIEGGPSSGAPPPSGSEE
modifications: non-natural residues; Lys acylated C18 diacid; C-terminal amide; synthetic construct; SITE 2: note = 2-Aminoisobutyric Acid; SITE 10: note = 3-(4-Pyridyl)-L-alanine; SITE 13: note = alpha-methyl-leucine; SITE 17: note = Lysine is chemically modified through conjugation of the epsilon-amino group of the Lysine side chain with (2-[2-(2-Amino-ethoxy)-ethoxy]-acetyl)
cAMP Rel EC50, nM (1% HSA) [1]: 357 nM | cAMP Rel EC50, nM (1% HSA) [2]: 35.3 nM | cAMP Rel EC50, nM (1% HSA) [3]: 450 nM
